Test results published in article PMC5263102.

Target: chimeric FcεRI (human α, rat β/γ) on hRBL^rαKO cells (human | rat (endogenous in RBL-2H3)) (UniProt P12319)
Test: flow cytometry on cells

Chain of UniProt P12319 (P12319 26-257, change not shown, chain 1 of 3): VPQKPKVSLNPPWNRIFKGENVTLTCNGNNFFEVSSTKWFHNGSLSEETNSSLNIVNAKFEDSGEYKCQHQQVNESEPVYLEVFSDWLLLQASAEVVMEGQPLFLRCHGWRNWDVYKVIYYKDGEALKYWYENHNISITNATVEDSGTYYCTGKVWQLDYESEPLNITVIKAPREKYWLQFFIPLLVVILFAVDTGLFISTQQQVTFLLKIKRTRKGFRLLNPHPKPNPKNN
Chain of UniProt P12319 (P13386 whole entry, change not shown, chain 2 of 3, further chain): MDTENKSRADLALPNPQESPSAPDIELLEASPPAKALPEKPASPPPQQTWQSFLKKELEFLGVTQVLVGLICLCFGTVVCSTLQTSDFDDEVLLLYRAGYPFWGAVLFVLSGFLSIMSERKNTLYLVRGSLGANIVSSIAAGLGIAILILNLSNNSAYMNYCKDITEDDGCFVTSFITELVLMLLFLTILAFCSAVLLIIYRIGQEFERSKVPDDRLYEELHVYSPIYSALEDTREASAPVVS
Chain of UniProt P12319 (P20411 19-86, change not shown, chain 3 of 3, further chain): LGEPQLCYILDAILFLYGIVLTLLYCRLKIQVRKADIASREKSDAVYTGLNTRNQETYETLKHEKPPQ

% Receptor Occupied at 3.75 ng/ml IgE: 0.16%
% Receptor Occupied at 7.5 ng/ml IgE: 0.26%
% Receptor Occupied at 15 ng/ml IgE: 0.44%
% Receptor Occupied at 30 ng/ml IgE: 1.1%
% Receptor Occupied at 60 ng/ml IgE: 1.89%
% Receptor Occupied at 120 ng/ml IgE: 4%
% Receptor Occupied at 1000 ng/ml IgE: 28%
% Receptor Occupied at 4000 ng/ml IgE: 60%
% Receptor Occupied at 8000 ng/ml IgE: 78%
% Receptor Occupied at 10000 ng/ml IgE: 83%
% Receptor Occupied at 15000 ng/ml IgE: 93%
% Receptor Occupied at 20000 ng/ml IgE: 100%
koff: 1.53e-05 s⁻¹
kon: 6230 M⁻¹ s⁻¹
Substance: human IgE, Alexa 488-conjugated (hIgE^Alexa-488) (antibody)
